{"source": "patent US20120141482A1", "key": {"[1]": {"target": "serologically reactive H-2 L^d on RENCA cells (mouse) (UniProt P01897)", "sequence (P01897 25-362)": "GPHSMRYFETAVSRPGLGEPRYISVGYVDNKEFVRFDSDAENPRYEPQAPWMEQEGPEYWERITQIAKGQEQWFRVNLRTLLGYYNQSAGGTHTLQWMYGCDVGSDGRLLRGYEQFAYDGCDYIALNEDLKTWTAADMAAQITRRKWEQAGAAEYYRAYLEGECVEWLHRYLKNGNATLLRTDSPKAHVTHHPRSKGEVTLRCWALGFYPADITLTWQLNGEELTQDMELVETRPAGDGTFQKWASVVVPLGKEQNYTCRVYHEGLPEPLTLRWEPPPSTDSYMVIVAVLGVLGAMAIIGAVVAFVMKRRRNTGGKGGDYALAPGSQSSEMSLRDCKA", "assay": "flow cytometry on RENCA cells stimulated with 5-50 units/ml γ-IFN"}, "[2]": {"target": "serologically reactive H-2 L^d on RENCA cells (mouse) (UniProt P01897)", "assay": "flow cytometry on unstimulated RENCA cells"}, "[3]": {"target": "p2Ca/H-2 L^d complex (mouse) (UniProt P01897)", "sequence (P01897 25-309, one chain of several)": "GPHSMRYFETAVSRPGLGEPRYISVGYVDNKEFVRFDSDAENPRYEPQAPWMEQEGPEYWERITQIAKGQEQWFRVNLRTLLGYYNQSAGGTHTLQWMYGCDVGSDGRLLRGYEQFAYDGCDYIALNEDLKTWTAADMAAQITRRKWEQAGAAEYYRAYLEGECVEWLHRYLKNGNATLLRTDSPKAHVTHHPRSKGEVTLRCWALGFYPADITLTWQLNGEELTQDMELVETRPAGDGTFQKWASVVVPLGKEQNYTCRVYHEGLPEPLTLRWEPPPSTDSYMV", "assay": "flow cytometry on L^d cells loaded with graded peptide concentrations; highest value"}, "[4]": {"target": "QL9/H-2 L^d complex (mouse) (UniProt P01897)", "sequence (P01897 25-309, one chain of several)": "as above", "assay": "flow cytometry on L^d cells loaded with graded peptide concentrations; highest value"}, "[5]": {"target": "unloaded H-2 L^d molecules on RMA-S L^d cells (mouse) (UniProt P01897)", "sequence (P01897 25-309)": "as the sequence (P01897 25-309, one chain of several) above", "assay": "direct flow cytometry on RMA-S L^d cells without peptide"}, "[6]": {"target": "H-2 L^d loaded with an irrelevant H-2 L^d binding peptide (mouse) (UniProt P01897)", "sequence (P01897 25-309)": "as the sequence (P01897 25-309, one chain of several) above", "assay": "direct flow cytometry on RMA-S L^d cells, irrelevant peptide (background)"}, "[7]": {"target": "SIY/H-2 K^b complex (mouse) (UniProt P01901)", "sequence (P01901 22-369, one chain of several)": "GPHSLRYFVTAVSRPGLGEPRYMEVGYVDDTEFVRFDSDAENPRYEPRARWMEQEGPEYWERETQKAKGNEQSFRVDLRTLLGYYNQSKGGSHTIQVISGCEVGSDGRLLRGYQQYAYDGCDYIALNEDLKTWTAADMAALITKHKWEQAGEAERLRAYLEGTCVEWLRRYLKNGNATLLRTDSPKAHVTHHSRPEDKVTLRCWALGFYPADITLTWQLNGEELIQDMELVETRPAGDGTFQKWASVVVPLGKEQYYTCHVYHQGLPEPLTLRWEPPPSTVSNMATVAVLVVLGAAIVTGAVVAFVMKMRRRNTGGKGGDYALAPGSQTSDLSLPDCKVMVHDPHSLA", "assay": "flow cytometry on peptide-loaded T2 K^b cells"}, "[8]": {"target": "unloaded H-2 L^d molecules on RMA-S L^d cells (mouse) (UniProt P01897)", "assay": "direct flow cytometry on RMA-S L^d cells, unloaded (background)"}, "[9]": {"target": "QL9/H-2 L^d complex (mouse) (UniProt P01897)", "assay": "flow cytometry, serial dilutions on QL9-loaded RMA-S L^d cells, detected with H57-FITC"}, "[10]": {"target": "p2Ca/H-2 L^d complex (mouse) (UniProt P01897)", "assay": "flow cytometry, serial dilutions on p2Ca-loaded RMA-S L^d cells, detected with H57-FITC"}, "[11]": {"target": "QL9/H-2 L^d complex (mouse) (UniProt P01897)", "assay": "direct flow cytometry on peptide-loaded L^d cells"}, "[12]": {"target": "SIY/H-2 K^bm3 complex", "assay": "flow cytometry on peptide-loaded T2 K^bm3 cells"}, "[13]": {"target": "p2Ca/H-2 L^d complex (mouse) (UniProt P01897)", "assay": "flow cytometry competition with constant FITC-30.5.7 Fab on peptide-loaded RMA-S L^d cells"}, "[14]": {"target": "pVSV/H-2 K^b complex (mouse) (UniProt P01901)", "sequence (P01901 22-369, one chain of several)": "as above", "assay": "flow cytometry on T2 K^b cells, control peptide (background)"}, "[15]": {"target": "SL9/H-2 L^d complex (mouse) (UniProt P01897)", "sequence (P01897 25-309, one chain of several)": "as the sequence (P01897 25-309, one chain of several) above", "assay": "direct flow cytometry on peptide-loaded RMA-S L^d cells"}, "[16]": {"target": "dEV-8/H-2 K^bm3 complex", "assay": "cell-based or functional assay"}, "[17]": {"target": "p2Ca/H-2 L^d complex (mouse) (UniProt P01897)", "assay": "cell-based or functional assay"}, "[18]": {"target": "SIY/H-2 K^b complex (mouse) (UniProt P01901)", "assay": "cell-based or functional assay"}, "[19]": {"target": "SIY/H-2 K^bm3 complex", "assay": "cell-based or functional assay"}, "[20]": {"target": "TCR of 5KC, a moth cytochrome C (MCC)-specific, I-E^k-restricted T cell hybridoma", "assay": "flow cytometry on 5KC hybridoma cells; reference cells without primary reagent"}, "[21]": {"target": "TCR of 5KC, a moth cytochrome C (MCC)-specific, I-E^k-restricted T cell hybridoma", "assay": "cell-based or functional assay"}, "[22]": {"target": "TCR of 5KC, a moth cytochrome C (MCC)-specific, I-E^k-restricted T cell hybridoma", "assay": "flow cytometry on 5KC hybridoma cells"}, "[23]": {"target": "p2Ca/H-2 L^d complex (mouse) (UniProt P01897)", "assay": "flow cytometry competition with FITC-30.5.7 Fab on peptide-loaded RMA-S L^d cells"}}, "note": "Values joined by “and” are separate entries in the source; they are usually repeats but may differ in a detail not shown here. Equal values may be shown once."}
{"substance": "mAb 30.5.7 (antibody)", "values": [{"measurement": "MCF", "setting": "[1]", "value": "2670 to 3040", "unit": "MCF"}, {"measurement": "MCF", "setting": "[2]", "value": 500, "unit": "MCF"}, {"measurement": "MCF", "setting": "[3]", "value": 3000, "unit": "MCF"}, {"measurement": "MCF", "setting": "[4]", "value": 3000, "unit": "MCF"}, {"measurement": "fold increase of mean channel fluorescence, cells at 27° C. against 37° C.", "setting": "[5]", "value": 5, "unit": "fold"}]}
{"substance": "soluble divalent 2C TCR/Ig (from UniProt A2KF29)", "values": [{"measurement": "MCF", "setting": "[6]", "value": 10, "unit": "MCF"}, {"measurement": "MCF", "setting": "[7]", "value": 276, "unit": "MCF"}, {"measurement": "MCF", "setting": "[8]", "value": 10, "unit": "MCF"}, {"measurement": "lowest concentration at which binding was detected", "setting": "[9]", "value": "< 1", "unit": "nM"}, {"measurement": "concentration required to detect binding", "setting": "[10]", "value": 3, "unit": "nM"}, {"measurement": "MCF", "setting": "[11]", "value": 3000, "unit": "MCF"}, {"measurement": "MCF", "setting": "[12]", "value": 36, "unit": "MCF"}, {"measurement": "Kapp", "setting": "[13]", "value": 108, "unit": "nM"}, {"measurement": "MCF", "setting": "[14]", "value": 14, "unit": "MCF"}, {"measurement": "MCF", "setting": "[3]", "value": 600, "unit": "MCF"}, {"measurement": "MCF", "setting": "[15]", "value": 100, "unit": "MCF"}]}
{"substance": "2C TCR on 2C CTL (from UniProt A2KF29)", "values": [{"measurement": "2C CTL mediated lysis, LD50 (peptide concentration)", "setting": "[16]", "value": "0.5 ng/mL and 1 ng/mL"}, {"measurement": "2C CTL mediated lysis of p2Ca-loaded T2 L^d cells, LD50 (peptide concentration)", "setting": "[17]", "value": 0.5, "unit": "ng/mL"}, {"measurement": "2C CTL mediated lysis, LD50 (peptide concentration)", "setting": "[18]", "value": 10, "unit": "ng/mL"}, {"measurement": "2C CTL mediated lysis, LD50 (peptide concentration)", "setting": "[19]", "value": 100, "unit": "ng/mL"}]}
{"substance": "soluble divalent ^MCCI-E^k/IgG (peptide-MHC)", "values": [{"measurement": "fold increase of mean channel fluorescence", "setting": "[20]", "value": 15, "unit": "fold"}, {"measurement": "IL-2 production, fold stimulation over anti-CD3 mAb at 92 ng/ml", "setting": "[21]", "value": 10, "unit": "fold"}, {"measurement": "lowest concentration at which specific staining was seen", "setting": "[22]", "value": 5, "unit": "nM"}, {"measurement": "mean channel fluorescence", "setting": "[22]", "value": 300, "unit": "MCF"}]}
{"substance": "soluble monovalent 2C TCR (from UniProt A2KF29)", "values": [{"measurement": "Kd", "setting": "[23]", "value": "> 2", "unit": "µM"}, {"measurement": "concentration required to detect binding", "setting": "[9]", "value": "> 100", "unit": "nM"}, {"measurement": "concentration required to detect binding", "setting": "[10]", "value": "> 3000", "unit": "nM"}, {"measurement": "Kapp", "setting": "[13]", "value": "> 2000", "unit": "nM"}]}
